Km, kcat and kcat/Km data for 1 protein are collected here from PMC10672810, “Research of Multicopper Oxidase and Its Degradation of Histamine in Lactiplantibacillus plantarum LPZN19” (Microorganisms, 2023).

Substrate in data set [1]: NCCc1c[nH]cn1
Description: histamine degradation monitored by LC-MS. Format: biochemical, Lactiplantibacillus plantarum. Particulars: 50 °C, pH not stated for this assay.

Substrate in data set [2]: CCn1c(=NN=c2sc3cc(S(=O)(=O)O)ccc3n2CC)sc2cc(S(=O)(=O)O)ccc21
Description: ABTS oxidation, visible absorption, Lineweaver-Burk. Format: biochemical, Lactiplantibacillus plantarum. The following applies: MES buffer, pH 3.5, 50 °C, 2 h. An excerpt:
ABTS oxidation, visible absorption, Lineweaver-Burk on MCO (multicopper oxidase)

B1: MCO (multicopper oxidase) (Lactiplantibacillus plantarum WCFS1) (protein)
chain: MAKKVYTDYFFDEPAYNTHDGGYIPLVTPKVEPQPLAIPPLLKPDRQTDTDDYYTVTAQESETQFLPGKKTKTWGYNAGFLGQTIVFRNGKQTHIDLENKLPELTTFHWHGLNVPGPITDGGCHAPVYPGETNHIDFKVHQPAATTWLHAHPCPSTATQVWKGLATMVIIKDDVEDQLPLPRNYGVDDIPLVLQDREFHDDNQFDYRADYDPDGVQGHTALVNGTVNPYFDVTTQRVRLRILDGSNRREWRLHFNDDLEFAQVASDGGILPAPVYMTKVMMTCAERDEIVVDFGQYQPGDEVTLMTDDTPLCRFRIKSFVPDDTKLPEHLVDIPDETPTPDLPVRTITMDGMDDEVALDGKKFDMSRIDARQKVGDVAIWEIRNTNSTENGMVHPFHVHGTQFRVLARNDGPVYPNEHGLKDTVGVNPGETVRIKVKFELTGVYMYHCHIIEHEDGGMMAQIESYDPQHPQTYHLMDMDTLRNAFAKEQGIKPEDVWMPGM
notes: full length, 501 residues, no signal peptide; pET-28a EcoRI/HindIII, N-terminal His-tag (about 67 kDa on SDS-PAGE), E. coli BL21 (DE3), Ni-NTA; primers imply N-terminus MAKKVYTD and C-terminus WMPGM; peptides EFHDDNQFDYR, GLATMVIIKDDVEDOLPLPR
Usually Km stands for the substrate concentration at which the rate is half of its maximum. In general, kcat refers to the number of substrate molecules converted per active site and unit of time at saturation. By kcat/Km is commonly meant the second-order rate constant that governs catalysis at low substrate concentration. In the case of B1, the Km in data set [1] was 2070 ± 180 µM. Further, in data set [2], the Km amounted to 2180 ± 130 µM, the kcat stood at 3.77 ± 0.09 s⁻¹ and the kcat/Km came to 1730 ± 160 M⁻¹ s⁻¹.
